# Data taken from the supplement of paper PMC12042874.
# ± gives the uncertainty stated by the source.
# Experiment: amyloid nucleation score (Sup35N fusion, yeast selection) (log enrichment); library NNK2; higher = more nucleation; inactive = no reads after selection
# In short: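 The nucleation score equals the log enrichment of output over input reads from DiMSum, centred on the mode score of non-aggregating sequences. It was computed only for sequences with 100 or more input reads. The reads came from Illumina sequencing of plasmid inserts from psi-negative yeast expressing Sup35N fused to peptides of 20 random codons, induced with 100 μM copper sulfate for 24 hours and grown 7 days at 30°C without adenine and uracil.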
row,Substance,amyloid nucleation score
1,ALAACSNSRG,0.416 ± 0.54
2,DSLLKVLRRIWCLYVGGNLI,-0.758 ± 0.37
3,GFLQSGCPSTLLSLRKRAIL,0.307 ± 0.51
4,KEMAFVRGMTARPRYNVNSE,1.22 ± 0.29
5,MNVGTFSLRFLSFDLL,-0.054 ± 1.1
6,SSAWYFSLGTDIAFDAGYSA,-0.108 ± 1.1
7,MRCAPLMHHLARPASFRI,2.08 ± 0.096
8,MRYRIICNFCHDVRKESLLK,-0.246 ± 0.8
9,FCISFRTRSDPRSHSSGAIE,0.498 ± 0.54
10,WHFSLTMFRSERVNVLTASD,1.04 ± 0.27
11,LMHSQCSFSNELYVDSEARG,0.093 ± 0.38
12,SRGSSMMQIYFL,5.995 ± 0.059
13,LECCG,-0.838 ± 0.55
14,RLVWWVIWIPSKCMGADKNW,-0.029 ± 0.8
15,DFYNRASLSYTSDVASGSPC,inactive
16,IWHFYIACLGVSNESISGFG,6.77 ± 0.068
17,TWGPWTLMSVLSCGVYGSHG,4.3 ± 0.084
18,QRADQWVSRKLRPSIARL,1.52 ± 0.34
19,SREGLCCNIVYA,-0.45 ± 0.37
20,HFGDIDKYRAADAGVVERNP,4.25 ± 0.083
21,IGVYSVWNFMMVRSADARFN,3.4 ± 0.16
22,PWRRISMVVSWQYIEFIKYL,-0.832 ± 0.78

row,Substance,amyloid nucleation score
1,ALKNLHAHTG,0.015 ± 0.8
2,FSGIYESPMVLHMV,-1.97 ± 0.62
3,FGRRLQGRHINSNDQWGRQA,0.339 ± 0.61
4,CERGLFFVMY,-1.15 ± 1.1
5,EVVAISNTASICLYSNYKH,5.04 ± 0.1
6,CVHTAVVRILIRAKKAGLIT,inactive
7,TFKMSGINPTD,-1.19 ± 0.3
8,YSCFEMSCVGLGDVMIFIVL,8.119 ± 0.037
9,VSKSFWGMGWSLRYSGFSRV,-0.262 ± 0.41
10,VGTTNQYDEPTTGLSHC,0.953 ± 0.32
11,WEIYIGTLTIKWLFTMDRLV,-0.133 ± 0.23
12,RGVLVEFYGAMENISWSTYW,-0.497 ± 0.76
13,CYVLFIRSDYGTWSMVH,4.53 ± 0.051
14,LVFVAGRILMMIFFVSGLAI,2.59 ± 0.09
15,YWCFAI,-0.349 ± 0.26
16,IIYNKSW,2.77 ± 0.094
17,VVRKRSKMKLRRIHFSWLVW,0.744 ± 0.26
18,VHICRTNDG,0.632 ± 0.44
19,LFNVMFRSLMVGWMYHENGL,0.525 ± 0.44
20,NTLTTFVIGGCCLRFEASYM,10.52 ± 0.077
21,MSRKFMGVFCTSSRGSLPRG,0.653 ± 0.47
22,DVIVRLFVPYLVV,-0.199 ± 0.44

row,Substance,amyloid nucleation score
1,FSRSYVPIMY,0.759 ± 0.8
2,MNGCTTANGIVDTRSNAFTC,1.87 ± 0.097
3,PMFYGCGPKLCDYYMNVLFV,2.85 ± 0.12
4,RVLISQGLMYISHTMSG,5.337 ± 0.044
5,LLLNNLVYFSLRVYLLNFCL,-2.07 ± 0.62
6,RVRGSSVSISKLNKCKVVDT,3.33 ± 0.091
7,QNEVSLEVVFVKEGVGFDRL,-0.665 ± 0.76
8,PWFKTFWSNMWAVTGW,-0.436 ± 1.1
9,VRKGHPYALELLSCYVGCQP,1.18 ± 0.25
10,YNIHYMNVLIGALHL,8.327 ± 0.056
11,TYICT,-0.59 ± 0.24
12,YKYSCFDRG,inactive
13,TVSRTVCVASYCLSSEKTSG,-0.899 ± 0.31
14,RQARSCIVGDGSWRGCLIKV,1.11 ± 0.26
15,CHNNFNCPNVLVFLARELSI,4.99 ± 0.079
16,FFMGGMRASNMDYATSWLK,4.3 ± 0.099
17,FVTCYKLWMAFYTMVQSRKS,1.17 ± 0.48
18,IVMCTRRDIA,-0.577 ± 0.56
19,ISIYIITVILFLVDALYMLR,-0.809 ± 1.1
20,EMVIGMFKCTLISSIVLKTC,0.484 ± 0.23
21,SSYSDLIQLNSNWMWCICLL,8.101 ± 0.06
22,TFYRACALTLMRDQTDSWYC,4.35 ± 0.091

row,Substance,amyloid nucleation score
1,IYQVRLYD,-0.923 ± 0.5
2,GHLRYTIDTGTTSGSSDLMS,-0.842 ± 0.63
3,CTFSVF,-1.71 ± 0.48
4,ITCLWRAWNAVLRRGHYKTS,0.615 ± 0.51
5,YRCLYGRKYVFRIEPIGIVH,-0.676 ± 0.35
6,NCSHGLHLNVFNLVPYKSLI,4.9 ± 0.096
7,YCHALARLSGFL,0.127 ± 0.27
8,HVCCFKSQDRCYWVG,-0.447 ± 0.63
9,RMDTGNLYVFLMKCFNMAYA,5.2 ± 0.091
10,SCRVME,0.292 ± 0.2
11,YNSVELYFACLFLAHAVLVY,inactive
12,SMRVVCYWVLRW,3.16 ± 0.075
13,VWGWD,-0.517 ± 0.78
14,RTRDPRIFLSVCTGYTRRYY,-1.28 ± 0.76
15,FSEWRIGKNMIFCDVIDVCE,1.94 ± 0.089
16,TRSYQLLLVSLVAGNFVE,1.5 ± 0.27
17,VEADVYDRDVTSWRMLYLYK,0.174 ± 0.4
18,WLGYEEGG,0.508 ± 0.62
19,FQCNCTLSQIAWNKSQGQSS,-0.363 ± 1.1
20,HCCHRFYMDSEIACTCFTTM,-0.523 ± 0.56
